The values below are quoted from earlier work in PMC6120632.

pKd: −log10 of the molar value.

The data set has as its target Basigin (Homo sapiens) (UniProt P35613).
UniProt P35613, sequence (P35613 22-325): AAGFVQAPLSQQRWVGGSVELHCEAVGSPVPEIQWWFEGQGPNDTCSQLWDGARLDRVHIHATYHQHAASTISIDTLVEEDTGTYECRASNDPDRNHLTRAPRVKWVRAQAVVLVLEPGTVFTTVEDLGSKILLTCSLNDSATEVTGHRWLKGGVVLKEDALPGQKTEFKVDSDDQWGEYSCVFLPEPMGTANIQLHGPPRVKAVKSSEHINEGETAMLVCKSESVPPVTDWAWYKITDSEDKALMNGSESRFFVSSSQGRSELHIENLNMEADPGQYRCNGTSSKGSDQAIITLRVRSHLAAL

In general, pKd refers to the negative decadic logarithm of the Kd, by convention in mol/L. As for RH5 (from UniProt Q8IFM5), the pKd was 6.00.
